Measured values as given in paper PMC7954794, “Protein context shapes the specificity of SH3 domain-mediated interactions in vivo” (Nature Communications, 2021).

B1: YDL146W_1 (protein, UniProt Q12342 1-491, looked up)
Protein LDB17: MILDPLSPNIENHTQDEIIEFWEKTESIANIPKENLDESHVNSSLVAYLKFATDSYKVFINTDRDLYRMSLILLESSLFEFKKEFCLSKLQSLLNIDLLEMNMKFIIVYILLCEAKKNVYSLEIMLKFQGFTVFYNTLYTQFAYLSKYGKERTVASKHQYNSNNSSTGTSLDSLDRSLTDIDLGIIDEMKQISTVLMDLLFQIMKYCKCVIANLQIVDDFFVYYMMESMRSDTMDDMFNNAEFKLLLALNEQYMMFAKEYDIENKVYKYLINGSVSRCFTELLLLKFNRASDPPLQIMMCKIIYLILTPRGDYSPMNFFYTNDLRVLIDVLIRELQNISEDEEVLRNTLLRVLIPLLKNTQLSKTHYRKDDLNKLLNYLSTLDNICVDSPALHEHQVTVALSRKCLQQIPWLETPSTPSDGGSSVSSNNTSRNSSIVALGTPDNQNILARKGHLYSNRELDVSAESLTKRKAKAPPPPPPPPPSRKCGTPK
B2: YKL129C_1 (protein, UniProt P36006 1-1272, looked up)
Myosin-3: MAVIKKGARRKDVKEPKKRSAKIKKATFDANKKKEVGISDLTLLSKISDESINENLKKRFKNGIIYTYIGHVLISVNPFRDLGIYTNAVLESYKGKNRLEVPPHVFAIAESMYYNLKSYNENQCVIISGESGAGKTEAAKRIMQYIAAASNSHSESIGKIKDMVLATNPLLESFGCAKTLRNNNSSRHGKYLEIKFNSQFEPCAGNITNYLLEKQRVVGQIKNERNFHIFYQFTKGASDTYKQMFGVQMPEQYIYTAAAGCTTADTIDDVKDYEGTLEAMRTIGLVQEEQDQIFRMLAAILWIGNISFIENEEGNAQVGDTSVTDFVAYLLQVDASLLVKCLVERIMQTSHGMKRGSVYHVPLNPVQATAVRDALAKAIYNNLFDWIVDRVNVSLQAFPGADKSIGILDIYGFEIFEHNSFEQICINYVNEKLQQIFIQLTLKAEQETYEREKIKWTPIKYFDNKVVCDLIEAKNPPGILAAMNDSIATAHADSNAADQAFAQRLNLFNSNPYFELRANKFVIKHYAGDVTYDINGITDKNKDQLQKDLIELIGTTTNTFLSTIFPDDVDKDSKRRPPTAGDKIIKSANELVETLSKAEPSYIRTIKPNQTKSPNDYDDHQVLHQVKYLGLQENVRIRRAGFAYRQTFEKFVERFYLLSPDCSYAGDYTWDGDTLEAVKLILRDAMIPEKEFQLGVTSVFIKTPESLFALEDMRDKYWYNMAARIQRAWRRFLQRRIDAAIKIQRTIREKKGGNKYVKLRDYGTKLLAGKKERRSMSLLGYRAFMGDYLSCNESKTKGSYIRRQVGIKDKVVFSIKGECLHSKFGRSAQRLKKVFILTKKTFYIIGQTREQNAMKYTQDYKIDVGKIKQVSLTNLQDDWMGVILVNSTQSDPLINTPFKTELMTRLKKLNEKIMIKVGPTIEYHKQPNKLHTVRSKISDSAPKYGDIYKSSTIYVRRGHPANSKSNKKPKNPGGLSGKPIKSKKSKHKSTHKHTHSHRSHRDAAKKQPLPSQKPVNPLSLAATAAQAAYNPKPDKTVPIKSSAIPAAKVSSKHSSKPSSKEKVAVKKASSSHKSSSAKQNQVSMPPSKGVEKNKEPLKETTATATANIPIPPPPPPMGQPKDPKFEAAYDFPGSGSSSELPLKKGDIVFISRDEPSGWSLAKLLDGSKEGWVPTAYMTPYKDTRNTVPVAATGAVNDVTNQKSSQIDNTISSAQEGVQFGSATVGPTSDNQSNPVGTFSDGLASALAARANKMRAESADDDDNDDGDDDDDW

Test system: PPIs identified as affected by the SH3 domain deletions
Test: Liquid DHFR-PCA low-throughput validation of PPIs affected by SH3 deletion (Fig. S1D-E)
Type: cell-based, Saccharomyces cerevisiae
Details: label = prey, liquid DHFR-PCA, prey _1 = lost, _2 = gained in screen
Summary of the method: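 Yeast diploids from DHFR-PCA mating grown 48 h in synthetic complete MSG medium pH 6.0 with NAT and HPH, normalized to 1 OD and diluted to 0.1 OD in liquid PCA selection medium. Growth followed by OD every 15 min for 72 h at 30 °C.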

Molecule	Ratio (Deletedscore / WTscore) (bait BZZ1-1)	Ratio (Deletedscore / WTscore) (bait BZZ1-2)	Ratio (Deletedscore / WTscore) (bait LSB3)	Ratio (Deletedscore / WTscore) (bait PIN3)
B1	0.5572	0.7122	0.6902	–
B2	0.69	–	–	0.7986
